{"source": "paper PMC7717681", "about": "“Biochemical and structural characterisation of a protozoan beta-carbonic anhydrase from Trichomonas vaginalis” (Journal of Enzyme Inhibition and Medicinal Chemistry, 2020)", "molecular_target": "the molecule itself", "experiment": "SEC-MALS; SEC combined with static and dynamic light scattering (SEC-SLS/DLS, right-angle light scattering) and a SEC standard curve; Superdex 200 5/150, 50 mM NaH2PO4, 500 mM NaCl, pH 8, 20 °C; after His-tag removal", "data": [{"protein": "beta-carbonic anhydrase from Trichomonas vaginalis (TvaCA1) (enzyme, TvaCA1, beta-carbonic anhydrase of Trichomonas vaginalis, gene TVAG_005270, UniProt A2ENQ8; Zinc metalloenzyme; The His-tag was removed by thrombin at an LVPRGS site; also called β-CA from T. vaginalis; source: E. coli BL21 Star (DE3), purified (Ni2+-NTA, His-tag removed by thrombin, second Ni2+-NTA; SEC in addition for crystallisation); not shown: His6, N-terminal, cleaved) MSQLELITSANQAFLEANPELTKLNKAPQRHIAIVTCMDTRLVNFAEDAIGVKRGEATVIKAAGNGIWTTGLSDIVVSLLVSIYELGVQEIFIMGHECCGMTHASTDSLGAQMLKSGIKPEDIEKFKSDLSKWVDDFKDPIDNIKNSVRCVRENPLIPKNIPIHGLLIHPDTGKVTTIINGY", "values": [{"measurement": "stoichiometry N", "value": 2}]}]}
